Source: patent US20110160440A1, “Cab Molecules” (GENENCOR INTERNATIONAL, INC., priority 2003, published 2011)
Changes are numbered by the printed parent chain.

T1: CEA (carcinoembryonic antigen) (Homo sapiens, UniProt P06731)
T1 construct: purchased Biodesign Intl., Saco, Me
T1 sequence (P06731 35-676): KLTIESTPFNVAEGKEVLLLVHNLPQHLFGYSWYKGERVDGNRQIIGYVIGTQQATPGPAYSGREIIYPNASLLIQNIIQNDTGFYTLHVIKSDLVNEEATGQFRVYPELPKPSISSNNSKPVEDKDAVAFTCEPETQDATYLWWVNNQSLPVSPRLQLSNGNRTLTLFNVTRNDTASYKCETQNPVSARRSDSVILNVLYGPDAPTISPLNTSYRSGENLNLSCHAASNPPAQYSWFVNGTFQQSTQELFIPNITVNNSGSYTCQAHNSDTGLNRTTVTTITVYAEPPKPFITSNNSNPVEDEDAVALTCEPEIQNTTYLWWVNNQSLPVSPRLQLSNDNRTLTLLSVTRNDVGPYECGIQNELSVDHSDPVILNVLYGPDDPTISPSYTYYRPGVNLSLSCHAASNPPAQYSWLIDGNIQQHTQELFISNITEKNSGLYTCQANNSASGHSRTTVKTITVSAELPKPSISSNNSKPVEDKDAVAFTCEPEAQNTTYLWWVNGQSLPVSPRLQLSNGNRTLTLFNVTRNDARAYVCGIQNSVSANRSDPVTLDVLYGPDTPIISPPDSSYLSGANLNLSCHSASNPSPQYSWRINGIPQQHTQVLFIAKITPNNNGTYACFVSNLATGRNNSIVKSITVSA

B1: CAB1.4 (protein)
chain: QVQLQQSGAELVKSGGSVKLSCTASGFNIKDSYMHWVRQGPEQGLEWIGWIDPENGDTEYAPKFQGKATFTTDTSSNTAYLQLSSLTSEDTAVYYCNEGTPTGPYYFDYWGQGTTVTVSSGGGGSGGGGSGGGGSENVLTQSPAIVSASPGEKVTITCSASSSVSYMHWFQQKPGTSPKLVIYDTSNLASGVPARFSGSGSGTSYSLTISRMEAEDAATYYCQQRDSYPLTFGAGTKLELKRAATPVSEKQLAEVVANTITPLMKAQSVPGMAVAVIYQGKPHYYTFGKADIAANKPVTPQTLFELGSISKTFTGVLGGDAIARGEISLDDAVTRYWPQLTGKQWQGIRMLDLATYTAGGLPLQVPDEVTDNASLLRFYQNWQPQWKPGTTRLYANASIGLFGALAVKPSGMPYEQAMTTRVLKPLKLDHTWINVPKAEEAHYAWGYRDGKAVRVSPGMLDAQAYGVKTNVQDMANWVMANMAPENVADASLKQGIALAQSRYWRIGSMYQGLGWEMLNWPVEANTVVETSFGNVALAPLPVAEVNPPAPPVKASWVHKTGSTGGFGSYVAFIPEKQIGIVMLANTSYPNPARVEAAYHILEALQ
B2: SW149.5 (protein)
chain: B1 chain with T100L, T102L, P104A, Y105I, F107N
B3: CAB1.7: best variant of library SW155 from SW149.5; SEQ ID NO:9 (protein)
chain: B1 chain with T100L, T102L, P104A, Y105I, F107N, S163A, S165Y, Y166A, K241D
modifications: CAB1.7 protein variant

How the values were obtained:
[1] = target: T1, CEA (carcinoembryonic antigen); test: CEA-binding assay on CEA-coated plates, bound BLA activity read with nitrocefin; settings: for binding to CEA / affinity in library screening: relative to parent clone
Procedure: (§1) Binding to CEA (carcinoembryonic antigen, Biodesign Intl., Saco, Me.) was measured using the following procedure: 96-well plates were coated with 100 ul per well of 5 ug/ml of CEA in 50 mM carbonate buffer pH 9.6 overnight. The plates were washed with PBST and blocked for 1-2 hours with 300 ul of casein (Pierce, Rockford, Ill.). 100 ul of sample from the production plate diluted 100-1000 fold was added to the CEA-coated plate and the plates were incubated for 2 h at room temperature. Subsequently, the plates were washed four times with PBST and 200 ul nitrocefin assay buffer was added, and the BLA activity was measured as described above.
as §1, with “Biodesign Intl., Saco. Me.) was” for “Biodesign Intl., Saco, Me.) was”, “Ill.). 100 n1 of sample” for “Ill.). 100 ul of sample”, “to the CEA coated plate and” for “to the CEA-coated plate and”, “described above. CEA binding was measured in 50 mM phosphate buffer pH 6.5 and in a separate experiment in 50 mM phosphate buffer pH 7.4.” for “described above.”
Winners were confirmed by culturing them in 5 ml of LB medium containing 5 mg/l chloramphenicol and 0.1 mg/l cefotaxime (Sigma) for 2 days at 37 C. Subsequently, the cultures were centrifuged and the pellet was suspended in 375 ul of BPER reagent to release the fusion protein. BLA activity was determined as above. One unit of activity was defined as the amount of BLA that leads to an absorbance increase of one mOD per minute. The samples were diluted based on their total content of BLA activity and the CEA-binding assay was performed as described above but adding various sample dilutions to each well.
In order to compare the target-binding properties of various CAB1 variants, we grew 5 ml cultures of TOP10F′ containing the corresponding expression plasmids, as provided above for 3 days at 25 C in LB medium containing 5 mg/l chloramphenicol. The cultures were centrifuged, and the resulting supernatant was discarded. The cell pellets were resuspended in 500 μL of B-PER reagent. This was incubated for 30 minutes. Lactamase concentration in each sample was determined using nitrocephin as substrate, as provided above.
Binding of the samples to microtiter plates coated with CEA was studied in 50 mM phosphate buffer at pH 6.5 and pH 7.4, as provided above.

host proteases = test: Screen for improved expression: total BLA activity and CEA-bound BLA activity of CAB1 fusion variants after 3 days of culture (resistance to host proteases); settings: limited randomized library on pSW129.5 template
Procedure: Degradation seems to occur mainly in the scFv portion of the CAB1 fusion protein as the cultures contain significant amounts of free BLA after 3 days, which can be detected by Western blotting, or a nitrocefin (Oxoid, N.Y.) activity assay. Thus we applied a screen to library NA05 that was able to detect variants of CAB1-scFv that would resist degradation by host proteases over 3 days of culture at 37 C.
Library NA05 was plated onto agar plates with LA medium containing 5 mg/l chloramphenicol and 0.1 mg/l cefotaxime (Sigma). 910 colonies were transferred into a total of 10 96-well plates containing 100 ul/well of LA medium containing 5 mg/l chloramphenicol and 0.1 mg/l cefotaxime. […] The production plate was diluted 100-fold in PBST (PBS containing 0.125% Tween-20) and BLA activity was measured by transferring 20 ul diluted lysate into 180 ul of nitrocephin assay buffer (0.1 mg/ml nitrocephin in 50 mM PBS buffer containing 0.125% octylglucopyranoside (Sigma)) and the BLA activity was determined at 490 inn using a Spectramax plus plate reader (Molecular Devices, Sunnyvale, Calif.).
Binding to CEA (carcinoembryonic antigen, Biodesign Intl., Saco, Me.) was measured using the following procedure: 96-well plates were coated with 100 ul per well of 5 ug/ml of CEA in 50 mM carbonate buffer pH 9.6 overnight. […]

LS174T cells = test: Binding of CAB variants to fixed LS174T cells; design: species or system human
Procedure: In a similar experiment, binding of variants to LS174T cells was measured. LS174T cells were inoculated in 96 well polystyrene plate at 1×10^5 cells/well in a medium containing 70% DMEM, 30% F12, non-essential amino acids, L-Glut, and Sodium Pyruvate (all from Mediatech). The plate was incubated at 37° C. in a humidified CO2 incubator for 20 hours. The cells were then fixed with 4% formaldehyde in PBS (Polysciences, Warrington, Pa.). The plate was washed with PBST, and 1 mg/ml NaBH4 (Sigma) was added into each well to quench any reactive group. Then the plate was washed again with PBST. Binding of CAB molecules was continued the same way as binding to CEA antigen.

| Molecule | binding to CEA ([1]; pH 6.5) | binding to CEA ([1]; pH 7.4) | binding to CEA / affinity in library screening [1] | expression (host proteases) | binding to LS174T cells (LS174T cells; pH 6.5) | saturation levels of binding curves on LS174T cells (LS174T cells; pH 6.5 vs pH 7.4) | binding to LS174T cells (LS174T cells; pH 7.4, compared to CAB1.2) |
| --- | --- | --- | --- | --- | --- | --- | --- |
| B1 | significant binding | very weak binding | – | – | – | – | – |
| B2 | – | – | improved expression and affinity | improved expression | – | – | – |
| B3 | – | – | significantly improved binding to CEA | – | closely resembles the binding curve of CAB1.2 | pH-dependent | significantly weaker binding |
